T1: PknB1-279 (His-tagged catalytic kinase domain of Mycobacterium tuberculosis Ser/Thr protein kinase PknB, aa 1-279), P9WI81
T1 chain: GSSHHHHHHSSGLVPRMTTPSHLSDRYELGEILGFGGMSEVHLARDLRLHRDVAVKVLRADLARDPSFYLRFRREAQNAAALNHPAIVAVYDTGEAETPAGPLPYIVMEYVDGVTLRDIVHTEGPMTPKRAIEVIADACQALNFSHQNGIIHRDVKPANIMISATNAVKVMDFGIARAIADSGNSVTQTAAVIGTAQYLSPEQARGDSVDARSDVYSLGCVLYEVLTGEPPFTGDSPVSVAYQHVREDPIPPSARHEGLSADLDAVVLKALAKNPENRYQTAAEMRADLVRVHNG


Key:
[1] = target: PknB1-279 (His-tagged catalytic kinase domain of Mycobacterium tuberculosis Ser/Thr protein kinase PknB, aa 1-279) (Mycobacterium tuberculosis) (UniProt P9WI81); assay: cell-based or functional assay
[2] = target: T1, PknB1-279 (His-tagged catalytic kinase …)

Molecule	MALDI-TOF mass of PknB1-279 after phosphatase treatment (phosphate groups removed) (phosphate groups) [1]	dephosphorylation of autophosphorylated [33P]-PknB1-279 by PstP (SDS-PAGE, autoradiography, band shift) [2]	kinase activity of PknB on MBP with thio-γATP after preincubation with PstP [2]
PstP1-240 (His-tagged catalytic domain of Mycobacterium tuberculosis Ser/Thr protein phosphatase PstP, aa 1-240) (from UniProt P9WHW4 1-240) (enzyme)	3	–	–
PstP1-240 (His-tagged catalytic domain of Mycobacterium tuberculosis Ser/Thr protein phosphatase PstP, aa 1-240) (protein) MARVTLVLRYAARSDRGLVRANNEDSVYAGARLLALADGMGGHAAGEVASQLVIAALAHLDDDEPGGDLLAKLDAAVRAGNSAIAAQVEMEPDLEGMGTTLTAILFAGNRLGLVHIGDSRGYLLRDGELTQITKDDTFVQTLVDEGRITPEEAHSHPQRSLIMRALTGHEVEPTLTMREARAGDRYLLCSDGLSDPVSDETILEALQIPEVAESAHRLIELALRGGGPDNVTVVVADVVD	–	PstP is capable of dephosphorylating PknB	prior dephosphorylation of PknB by PstP inhibits kinase activity on MBP
